Results on one substance are retold here after patent US5786169.

Common to all, as to test: yeast interaction trap (two-hybrid), LexAop-lacZ reporter pJK103 in EGY48, galactose medium
The target in experiment [1] is LexA-Cdc2 (Dm) bait protein (Drosophila) (UniProt P23572).
The target in experiment [2] is LexA-Cdc2 (Hs) bait protein (human) (UniProt P06493).
Experiment [3] has as its target LexA-Cdc28 (Sc) bait protein (S. cerevisiae) (UniProt P00546).
Experiment [4] deals with LexA-Cdc2c (Dm) bait protein (Drosophila) (UniProt P23573).
Experiment [5] deals with LexA-Cdk2 (Hs) bait protein (human) (UniProt P24941).
Experiment [6] concerns the target LexA-Fus3 (Sc) bait protein (S. cerevisiae) (UniProt P16892).

For “tagged Cdi1 (activation-tagged prey fusion expressed from library plasmid pJG4-5)”, the β-Galactosidase Activity (β-galactosidase units) in experiment [1] was 40; in experiment [2], 1580; in experiment [3], 480; in experiment [4], over 2; in experiment [5] it was 440; in experiment [6] it was over 2.
